Each block holds one binder with its values, some of them ahead of it. No end group written: not given here.
Columns and labels:
[1] = biological target: T1, BRAF V600E peptide (biotinylated synthetic peptide including the amino acids of and surrounding the BRAF … (also: biotinylated (position not given here))); test: BLI
T1 peptide: GLATEKSRWSG

[2] = biological target: BRAF in colorectal cancer specimens with V600E mutation status: negative (human) (UniProt P15056); test: IHC, FLEX++ Dako OMNIS, CRC block 6 BRAF-, V600E mutation status negative
[3] = biological target: BRAF in colorectal cancer specimens with V600E mutation status: negative (human) (UniProt P15056); test: IHC, FLEX++ Dako OMNIS, CRC block 7 BRAF-, V600E mutation status negative
[4] = biological target: BRAF in colorectal cancer specimens with V600E mutation status: negative (human) (UniProt P15056); test: IHC, FLEX++ Dako OMNIS, CRC block 8 BRAF-, V600E mutation status negative
[5] = biological target: BRAF in colorectal cancer specimens with V600E mutation status: negative (human) (UniProt P15056); test: IHC, FLEX++ Dako OMNIS, CRC block 9 BRAF-, V600E mutation status negative
[6] = biological target: BRAF in colorectal cancer specimens with V600E mutation status: negative (human) (UniProt P15056); test: IHC, FLEX++ Dako OMNIS, CRC block BRAF- (slide 51), V600E mutation status negative; parameters: scale not given here
[7] = biological target: BRAF in colorectal cancer specimens with V600E mutation status: negative (human) (UniProt P15056); test: IHC, FLEX++ Dako OMNIS, CRC block BRAF- (slide 52), V600E mutation status negative
[8] = biological target: BRAF in colorectal cancer specimens with V600E mutation status: negative (human) (UniProt P15056); test: IHC, FLEX++ Dako OMNIS, CRC block 10 BRAF-, V600E mutation status negative (clinical status Equivocal/Negative)

Kd [1]: 5.05 pM
Tumor cells staining intensity [2]: 0.125
Tumor cells staining intensity [3]: 0.125
Tumor cells staining intensity [4]: 0
Tumor cells staining intensity [5]: 0.125
Tumor cells staining intensity [6]: 0.125
Tumor cells staining intensity [7]: 0.125
Tumor cells staining intensity [8]: 0.25
B1: chimeric BRAF V600E antibody (mouse variable domains, rabbit IgG heavy chain and rabbit kappa1 light chain constant domains; heavy chain SEQ ID NO:2 and light … (antibody, V domains shown)
VH: QAYLQQSGAELVRPGASVKMSCKASGYTFTSYNMHWIKQTPRQGLEWIGAIYPGNGDTSYNQKFKGKATLTVDRSSNTAYMQLSSLTSEDSAVYFCARDGISPWGQGTLVTVSS
VL: DIKMTQSPSSMYASLGERVTITCKASQDINRYLSWFQQKPGKSPKTLIYRANRVLDGVPSRFSGSGSGQDYSLTISSLESEDMGIYYCLHYDEYPYTYGGGTKLEIKG

Kd [1]: 4.86 pM
B2: recombinant mouse anti-human BRAF V600E antibody (mouse IgG2a heavy chain, mouse kappa1 light chain) (antibody, V domains shown)
VH: B1 VH
VL: DIKMTQSPSSMYASLGERVTITCKASQDINRYLSWFQQKPGKSPKTLIYRANRVLDGVPSRFSGSGSGQDYSLTISSLESEDMGIYYCLHYDEYPYTYGGGTKLEIK

From patent US20230416400A1 (published 2023)
